Experiment: yeast display, Sf9 membrane polyspecificity reagent, FACS + sequencing; frameworks hold sequencing errors
How it was run: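 A synthetic nanobody library was expressed on Saccharomyces cerevisiae BJ5465 by galactose induction for 36–48 hours. The library was stained for 1 hour at 4 °C with 10% biotinylated, detergent-solubilized Sf9 membrane reagent and enriched with streptavidin microbeads before FACS. Low and high (top ~1%) gates were set on anti-HA fluorescence for expression and streptavidin fluorescence for reagent binding, and each polyreactivity label reflects the gate of origin.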
For “QVQLVESGGGLVQAGGSLRLSCAASGSIYGGYAMGWYRQAPGKEREFVAAISRSGSSTYYADSVKGRFTISRDNAKNTVYLQMNSLKPEDTAVYSCAARYAGKAPGYRRYDYWGQGTQVTVSS”, the “polyreactivity (PSR sort gate)” value was “high polyreactivity”.
In the case of “QVQLVESGGGLVQAGGSLRLSCAASGSIYGLYAMGWSREAPGKEREVVATITESGGSTYYADSVKGRFTISRDNAKNTVYLQMKSLKPEDTAVYYCHSDEVSAQYDDWGQGTQVTVSS”, the “polyreactivity (PSR sort gate)” value is reported as “low polyreactivity”.
With “QVQLVESGGGLVQAGGSLRLSCAASGSIYGPYAMGWYRQAPGKERELVAAIAESSGSTYYADSVKGRFTISRDNAKNTVYLQMNRMKPEDTAVYYCAAEQITGWSWVWGSWYDYWGQGTQVTVSS” the “polyreactivity (PSR sort gate)” value was “low polyreactivity”.
With “QVQLVESGGGLVQAGGSLRLSCAASGSIYGTNAMGWYRKAPGKEREFVASITWGGGTYYADSVKGRFTISRDNAKNTVYFQMNSLKQEDSAVYYCATERVYTVYYDYDSWGQGTQVTVSS” the “polyreactivity (PSR sort gate)” value was “low polyreactivity”.
With “QVQLVESGGGLVQAGGSLRLSCAASGSIYIYYAMGWYRQAPVKERELVADITFSAGSNTYYADSVKGRFTISRDNAKNTVYLQMNSLKPEDTAVYYCNADRGFFGSITEYDYWGQGTQVTVSS” the “polyreactivity (PSR sort gate)” value was “low polyreactivity”.
With “QVQLVESGGGLVQAGGSLRLSCAASGSIYRYAMGSYRQAPGKERELVAAINFNGGRTYYADSVKGRFTISRDNAKNTVYLQMNSLKPEDTAVYYCAAVRSSNQGGFDYWGQGTQVTVSS” the “polyreactivity (PSR sort gate)” value was “high polyreactivity”.
With “QVQLVESGGGLVQAGGSLRLSCAASGSIYWLYAMGWYRQAPGKERELVAAIDSGDSTKNADSVKGRFTISRDNAKNTVYLQMNSLKPEDTAVYYCNASRRYHVRAPYDYWGQGTHVTVSS” the “polyreactivity (PSR sort gate)” value was “low polyreactivity”.
With “QVQLVESGGGLVQAGGSLRLSCAASGSIYWYAMGWYRQAPGKERQLVAAITKSGSSTYYADSVKGRFTISRDNAKNTVYLQMNSLIPEDTAVYYCAARRAVSGGVRTYYWGQGTQVTVSS” the “polyreactivity (PSR sort gate)” value was “high polyreactivity”.
For “QVQLVESGGGLVQAGGSLRLSCAASGSIYYNAMGWYRQAPGKERELVASISTGDSTDYADSVKGRFTISRDNAKNTVYLQMNSLKPEDTAVYYCAADTRLGYWDDYWGQGTQVTVSS”, the “polyreactivity (PSR sort gate)” value was “low polyreactivity”.
With “QVQLVESGGGLVQAGGSLRLSCAASGSIYYSYAMGWYRQAPGKERELVARITKRGGRTYYADSVKGRFTISRDNAKNTVYLQMNSLKPEDTAVYYCAATTGHRTYRYYYWGQGTQVTVSS” the “polyreactivity (PSR sort gate)” value was “high polyreactivity”.
With “QVQLVESGGGLVQAGGSLRLSCAASGSIYYWYTMGWYRQAPGKERELVAAISLSDGRTYYADSVKGRFTISRDNAKNTVYLQMNSLKPEDTAVYYCAADYRDASGYYRYDYWGQGTQVTVSS” the “polyreactivity (PSR sort gate)” value was “low polyreactivity”.
For “QVQLVESGGGLVQAGGSLRLSCAASGSKFKRNAMVWYRQAPGKERELVASISSGGSTHYADSVNGRFTISRDNSKNTVYLEMNSLKPEDTAVYYCAATSIRWSVGSFRRDYWGQGTQVTVSS”, the “polyreactivity (PSR sort gate)” value was “low polyreactivity”.
For “QVQLVESGGGLVQAGGSLRLSCAASGSLFEINAMGWYRPAPGKERELVAAITGSGGSTHYADSVKGRFTISRDNAKNTVYLQMNSLKPEDTAVYYCSAVPRYQYGYWGQGTQVTVSS”, the “polyreactivity (PSR sort gate)” value was “low polyreactivity”.
For “QVQLVESGGGLVQAGGSLRLSCAASGSLFGVNAMGWYRQAPGKERELVASISLSDDRTYYADSVKGRFTISRDIAKNTDYLQMNSLKPEDTAVYYCARRLLWYWDVDPSLAEYDYWGQGTQVTVSS”, the “polyreactivity (PSR sort gate)” value was “low polyreactivity”.
With “QVQLVESGGGLVQAGGSLRLSCAASGSLFIANAMGWYRQAPGKERELVAAISWSGGRTYYADSVKGRFTISRDNAKNTVYLQMNSLKPEDTAVYYCAAEWEFYYEYDYWGQGTQVTVSS” the “polyreactivity (PSR sort gate)” value was “high polyreactivity”.
With “QVQLVESGGGLVQAGGSLRLSCAASGSLFPLYAMGWYRQAPGKERELVAAITWRGGSTYYADSVKGRFTISRDNAKNTVYLQMNSLKPEDTAVYYCNRDLVPRFDYWGQGTQVTVSS” the “polyreactivity (PSR sort gate)” value was “low polyreactivity”.
With “QVQLVESGGGLVQAGGSLRLSCAASGSLFSGNAMGWYRQAPGKEREFVAAISRSGSSTYYADSVKGRFTISRDNAKNPVYLQMNSLKPEDTAVYYCASRFGDMGYWGQGTQVTVSS” the “polyreactivity (PSR sort gate)” value was “high polyreactivity”.
In the case of “QVQLVESGGGLVQAGGSLRLSCAASGSMFTNYAMGWYRQAPGQERELVAAISVGGGRTYYADSVKGRFTISRDNAQNTVYVQLNSLKPEDTAVYYCAARYPFGSLGRYGYWGQGTQVTVSS”, the “polyreactivity (PSR sort gate)” value is reported as “high polyreactivity”.
For “QVQLVESGGGLVQAGGSLRLSCAASGSMLKSYAMGWYIQAPGKESELVAAITYRDGSTYYADSVKGRFTISRDNAKNTVYLQMNSLKPEDTAVYYCNARWARGRYAQYGGLDREYDYWGQGTQVTVSS”, the “polyreactivity (PSR sort gate)” value was “high polyreactivity”.
In the case of “QVQLVESGGGLVQAGGSLRLSCAASGSNFAAYTMGWYRQAPGKERELVAAISVSTVSTYYADSVKGRFTISRDNAKNTVYLQMYSLTPEDTAVYYCIADATDSYPEKYEHDSWGQGTQVTVSS”, the “polyreactivity (PSR sort gate)” value is reported as “low polyreactivity”.
With “QVQLVESGGGLVQAGGSLRLSCAASGSNFDNAKGWYRQAPGKERELVAAITSGGITNYADSVKGRFTNSRDNAKKTVYLQMNSQKPEDTAVYYCNTMSPTQTKYDYWGQGTQVTVSS” the “polyreactivity (PSR sort gate)” value was “low polyreactivity”.
In the case of “QVQLVESGGGLVQAGGSLRLSCAASGSNFDPNAMGWYRQAPGKERELVAAISWSGGSTYYADSVKGRFTISRDNAKNTVYLQMNSLKPEDTAVSYCNAQFYDSYSYTNDDWGQGTLVTVSS”, the “polyreactivity (PSR sort gate)” value is reported as “low polyreactivity”.
With “QVQLVESGGGLVQAGGSLRLSCAASGSNFGFYAMGWYRQAPGKERELVAAIDSGDSTNYADSVKGRFTISRDNAKNTVYLQMNSLKPEDTAVYYCNAEAWWYFWFDYWGQGTQVTVSS” the “polyreactivity (PSR sort gate)” value was “low polyreactivity”.
With “QVQLVESGGGLVQAGGSLRLSCAASGSNFGPYAMGWSRPAPGKEMELVASITWTGGRTYYADSVKGRFTISLDNAKNTVYLQMNSLKPEDTAVYYCAADYSPSTWYLYYTLYYYWGQGTQVTVSS” the “polyreactivity (PSR sort gate)” value was “low polyreactivity”.
In the case of “QVQLVESGGGLVQAGGSLRLSCAASGSNFGPYAMGWYRQAPGKERELVAAISYSSVRTYYADSVKGRFTISRDNAKNTVYLQMNSLKPEVTAVYYCNAYFRYAYPSKMDYWGQGTQVTVSS”, the “polyreactivity (PSR sort gate)” value is reported as “low polyreactivity”.
With “QVQLVESGGGLVQAGGSLRLSCAASGSNFHGNSLGRYRQGTGKERELVAAISQSGDSTYYADSVKGRFTISRDNAKNTVYLQMNSLKPEDTAVYYCAARSGYRGYYHFYYWGQGTQVTVSS” the “polyreactivity (PSR sort gate)” value was “high polyreactivity”.
For “QVQLVESGGGLVQAGGSLRLSCAASGSNFLAYAMGWYRQAPGKERELVADISWGGGSTSYADSVKGRFTISRDNAKNTVYLQMNSLKPEDTAVYYCNKGSFSKRRDYYWGQGTQVTVSS”, the “polyreactivity (PSR sort gate)” value was “high polyreactivity”.
With “QVQLVESGGGLVQAGGSLRLSCAASGSNFLGNAMGWSIQAPGKERELVAAISSITGRTYYADSVKGRFTISRDNAKNTVYLQMNSLKPEDTAVYYCAAVQGANYYNEFDYWGQGTQVTVSS” the “polyreactivity (PSR sort gate)” value was “high polyreactivity”.
With “QVQLVESGGGLVQAGGSLRLSCAASGSNFLHNAMGWYRQAPGKERELDAAISGTGGRTYYADSVKGRFTISRDTANNTVYLQMNGLKPEDTAVYYWAARGSHVSIPRYNYWGQGTQVTVSS” the “polyreactivity (PSR sort gate)” value was “high polyreactivity”.
With “QVQLVESGGGLVQAGGSLRLSCAASGSNFPHYTMGWYRQAPAKERELVAAISNYGSSTYYADSVKGRFTISRDNAKNTVYLQMNSLKPEDTAVYYCNADDYGYSPGVNYWGQGTQVTVSS” the “polyreactivity (PSR sort gate)” value was “low polyreactivity”.
With “QVQLVESGGGLVQAGGSLRLSCAASGSNFRGNAKGWSRQAPGKERELVAAISKSGGSTYYADSVKGRFTISRDNAKNTVYLQMNSLKPEDTAVYYCAARTTYLYGMYYWGQGTQVTVSS” the “polyreactivity (PSR sort gate)” value was “low polyreactivity”.
With “QVQLVESGGGLVQAGGSLRLSCAASGSNFRLYAMGWYRHAPGKERELVATISGSAGRTYYADSVKGRFTISRDYAKNTVYLQMNSLKPEDTAVYYCAARWYQEYFWGQGTQVTVSS” the “polyreactivity (PSR sort gate)” value was “high polyreactivity”.

— the nanobody polyreactivity screen of Harvey et al. (2022)
